Values joined by “and” are separate entries in the source; they are usually repeats but may differ in a detail not shown here. Equal values may be shown once. Read-outs that look alike come from different tables or passages of the source.

The target of test [1] is polypeptides with a terminal leucine residue.
For test [2] the target is unchanged. The source holds these as a separate data set.
The target is the same in test [3]. Put plainly: single-molecule dwell time analysis.
In test [4] the target is … peptide containing N-terminal phenylalanine. Put plainly: single-molecule recognition of immobilized peptide, 500 nM of each binder.
For test [5] the target is unchanged. Put plainly: table of pulse statistics of the single-molecule recognition experiment.
Test [6] concerns the target polypeptides with a terminal leucine residue. Briefly: single-molecule dwell time analysis, distribution of mean pulse durations, panel Leu; filtered 0.00s≤dur≤20.00s and magnitude above baseline > 15.0.
The target in test [7] is peptide having an N-terminal phenylalanine residue. Briefly: single-molecule dwell time analysis, distribution of mean pulse durations, panel Phe; filtered 0.00s≤dur≤20.00s and magnitude above baseline > 15.0.
In test [8] the target is peptide having an N-terminal tryptophan residue. Briefly: single-molecule dwell time analysis, distribution of mean pulse durations, panel Trp; filtered 0.00s≤dur≤20.00s and magnitude above baseline > 15.0.
Test [9] deals with peptide having an N-terminal tyrosine residue. Briefly: single-molecule dwell time analysis, distribution of mean pulse durations, panel Tyr; filtered 0.00s≤dur≤20.00s and magnitude above baseline > 15.0.

B1: ClpS from Thermosynochoccus elongatus (teClpS), labeled (protein)
chain: MPQERQQVTRKHYPNYKVIVLNDDFNTFQHVAACLMKYIPNMTSDRAWELTNQVHYEGQAIVWVGPQEQAELYHEQLLRAGLTMAPLEPE
In the case of B1, in test [1], the pulse duration M is 0.43 s and 0.5 s; the pulse duration µ is 0.68 s and 0.65 s. Further, in test [2], the pulse duration M is 0.46 s and 0.63 s; the pulse duration Mo was 0.5 s; the pulse duration µ was 0.74 s and 0.82 s. Further, the mean pulse duration in test [3] was 0.71 s.

B2: at ClpS1 (Agrobacterium tumifaciens ClpS1) labeled with Cy3, Q8UFN4 1-117 (protein)
chain: MIAEPICMQGEGDGEDGGTNRGTSVITRVKPKTKRPNLYRVLLLNDDYTPMEFVIHILERFFQKDREAATRIMLHVHQHGVGECGVFTYEVAETKVSQVMDFARQHQHPLQCVMEKK
In [4], B2 showed a mean pulse duration of 1.3 s and a pulse rate of 8.1 pulses/min. Moreover, in [5], the N pulses is 98 and the median pulse width stood at 0.63 s.

B3: A. tumefaciens ClpS1 (protein)
chain: MIAEPICMQGEGDGEDGGTNRGTSVITRVKPKTKRPNLYRVLLLNDDYTPMEFVIHILERFFQKDREAATRIMLHVHQHGVGECGVFTYEVAETKVSQVMDFARQHQHPLQCVMEKK
As for B3, the mean pulse duration (value at the dashed line) came out at 0.31 s in test [6], 0.59 s in test [7], 0.34 s in test [8] and 0.69 s in test [9].
